± gives the uncertainty stated by the source.
Assay: amyloid nucleation score (Sup35N fusion, yeast selection) (log enrichment); library NNK2; higher = more nucleation; inactive = no reads after selection
How it was run: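 Sup35N was fused to peptides of 20 random codons and expressed in psi-negative yeast, which were induced with 100 μM copper sulfate for 24 hours and then grown on medium lacking adenine and uracil for 7 days at 30°C. Plasmid inserts from input and output were sequenced on Illumina. The nucleation score is the DiMSum log enrichment of output over input reads, centred on the mode score of non-aggregating sequences. Sequences with under 100 input reads were left out, and random libraries had three technical output replicates.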

| Substance | amyloid nucleation score |
| --- | --- |
| AAPVMH | -0.354 ± 0.76 |
| AAWIAMCRILKQPTRCGHFL | 6.15 ± 0.073 |
| ACAMFSKRSHSITSVVMGYG | 0.29 ± 0.48 |
| ACDSAIIGWNKIT | 0.504 ± 0.54 |
| ACETCPAAEIYLICGTWKSR | 9.36 ± 0.034 |
| ACLLLRSMFSKQRLTFR | -0.38 ± 0.76 |
| ACNFFPLI | 3.29 ± 0.065 |
| ACNSRHHEFMSSKFYSATQL | -1.3 ± 0.78 |
| ACQHSG | 4.36 ± 0.048 |
| ACSQLSYWTFHSPWP | 4.07 ± 0.072 |
| ACVCHREGCVAKGIIVM | 0.237 ± 1 |
| ACVWNDIEGMNTFTVNSFFL | 3.39 ± 0.16 |
| ADQSYLRNCIFWRQMILTRY | -0.193 ± 0.39 |
| ADRSVGGFNCVSFLYAVN | 4.02 ± 0.076 |
| AEGSDGCLKLNGAITIGHMI | inactive |
| AEGVSL | -0.554 ± 1 |
| AFEDVDVQS | 0.94 ± 0.32 |
| AFEFQYFIGGFRTRIMNCVF | inactive |
| AFEPDIK | -0.738 ± 0.62 |
| AFIYYFNLTSAHYFPMRQMF | inactive |
| AFRDRWLKRMKLTYVVGCIN | -0.17 ± 0.45 |
| AFVSSQVSTYYNFRTKDYSW | 3.68 ± 0.098 |

| Substance | amyloid nucleation score |
| --- | --- |
| AGAHVVKAIHFSLYGNEGLT | 0.6 ± 0.74 |
| AGCGIPALTYNNRRAKTHAQ | 0.901 ± 0.53 |
| AGELGLNIYVLSIYK | 5.26 ± 0.067 |
| AGEYDLIFYLDFYMGNEVIS | 2.29 ± 0.13 |
| AGFMHVCYGSGQHRSKVDGC | 2.93 ± 0.082 |
| AGILLYHPQNMHDSPLQMTR | 3.71 ± 0.099 |
| AGNQIRIRASTCASMLGWDL | 3.83 ± 0.051 |
| AGTFKRWPLGYECFVSERIG | -0.803 ± 0.49 |
| AHCIFVLDGAKFRLWCLGSG | 1.11 ± 0.41 |
| AHIREMNVSGGCWLVQWVSK | 9.497 ± 0.038 |
| AHIVGMSSSWRLKRYISIES | 0.768 ± 0.43 |
| AHRYGR | 1.57 ± 0.43 |
| AIIGKFVGVCCD | -0.931 ± 1.1 |
| AILLGLWCCTWFREALACLA | 1.04 ± 0.29 |
| AIPVYFVLLMSITPLQLVVM | 1.38 ± 0.15 |
| AIQQTQLLCIENMVGLFVVR | 0.58 ± 0.64 |
| AIRGRLKLVDMRHVIPKLKR | 1.21 ± 0.33 |
| AIVGEMMALFYDNLSRGGVH | -0.505 ± 0.47 |
| AIVSMFGVITY | -2.57 ± 0.62 |
| AKLPKPSRLHQRLTKQTV | 1.19 ± 0.38 |
| AKLRHWDCHFTR | 0.405 ± 0.2 |
| AKSNLVDFYTFWSTIECLTM | -0.808 ± 0.48 |

| Substance | amyloid nucleation score |
| --- | --- |
| ALFMDPFAVTLMRGL | 0.137 ± 0.54 |
| ALGYSRLTEYGLDRMVQTAC | 0.908 ± 0.52 |
| ALINHWNLVTFS | inactive |
| ALIRFCTSW | 0.588 ± 0.16 |
| ALPPPVKELPWISRFRQWGR | 1.22 ± 0.47 |
| ALTVKSQLCG | -1.71 ± 1.1 |
| ALWTLNDSSPDYKSPYTGGS | 0.508 ± 0.6 |
| ALYFVIQLPV | -0.677 ± 0.63 |
| AMLRPQTDHGVSSIHSLIIG | inactive |
| AMRFLALAWWTPGFSIGELM | 4.846 ± 0.035 |
| AMSECQHKMQWAAFSVFPGQ | 5.91 ± 0.089 |
| AMWESLP | 1.41 ± 0.25 |
| AMWFN | 0.932 ± 0.47 |
| AMYLPWARCSISPTNLIFNL | -1.1 ± 0.42 |
| ANGGYMVYSFAEEYYYDWCT | -0.063 ± 0.29 |
| ANMLRWLNFETFAVSRNLAI | 0.009 ± 0.74 |
| ANMTSHEFRWKSN | -0.168 ± 1.1 |
| ANNICCGASEKYGRWASTID | -0.76 ± 1 |
| ANYMRYYSGLICFTESRYMS | 1.5 ± 0.17 |
| APGWKLMNTSPNRMSTLNLQ | -0.633 ± 1.1 |
| APHSLVVGCTVVLF | 7.589 ± 0.037 |
| APRWWFYVDSY | 0.237 ± 1 |

| Substance | amyloid nucleation score |
| --- | --- |
| AQCAYTTDGFPFLCWRSGTF | 0.701 ± 0.6 |
| ARCTKINLGPYRGSINSLFW | inactive |
| ARFILFVALFWKFLY | 0.431 ± 0.46 |
| ARFWWALGNLCERIAGNDWV | 0.216 ± 0.44 |
| ARGGKLLSCFCSGWRLDHVR | 9.958 ± 0.051 |
| ARLLTRNINESNRFI | 0.065 ± 0.28 |
| ARLLWMRP | inactive |
| ARMITWGRNMILTPSPMRHK | -0.783 ± 1 |
| ARMSFWRRRPLLLSLRRSGV | 0.379 ± 0.44 |
| ARNWVHNCFWSHISFTSIA | 1.59 ± 0.13 |
| ARQDYWIRWLTALSMMYGSG | -0.071 ± 0.31 |
| ARSMVMHYFWGSTLAPESKF | -0.801 ± 0.45 |
| ARTKVIY | -1.34 ± 0.75 |
| ARTLWY | -0.522 ± 0.28 |
| ARVIECLHGRN | -0.147 ± 0.44 |
| ASITIHSFKMRTYTRAITRE | 3.92 ± 0.064 |
| ASLLGQKSAVGILRIHSKLY | -0.573 ± 1.1 |
| ASPFRF | 0.816 ± 0.74 |
| ASPSHACGLC | 2.12 ± 0.15 |
| ASQFCNKSSSYRDSRYLYTL | -0.802 ± 0.38 |
| ASSTRRSRSFNIGILCMFRM | 5.66 ± 0.06 |
